# Results: patent US20160368960A1
# Tests used:
# [1] = target: rat GLP-1-R (rat) (UniProt P32301); assay: cell-based or functional assay
# [2] = target: human Gcg receptor (human) (UniProt P47871); assay: cell-based or functional assay
# Sequence of human Gcg receptor (human) (P47871 26-477): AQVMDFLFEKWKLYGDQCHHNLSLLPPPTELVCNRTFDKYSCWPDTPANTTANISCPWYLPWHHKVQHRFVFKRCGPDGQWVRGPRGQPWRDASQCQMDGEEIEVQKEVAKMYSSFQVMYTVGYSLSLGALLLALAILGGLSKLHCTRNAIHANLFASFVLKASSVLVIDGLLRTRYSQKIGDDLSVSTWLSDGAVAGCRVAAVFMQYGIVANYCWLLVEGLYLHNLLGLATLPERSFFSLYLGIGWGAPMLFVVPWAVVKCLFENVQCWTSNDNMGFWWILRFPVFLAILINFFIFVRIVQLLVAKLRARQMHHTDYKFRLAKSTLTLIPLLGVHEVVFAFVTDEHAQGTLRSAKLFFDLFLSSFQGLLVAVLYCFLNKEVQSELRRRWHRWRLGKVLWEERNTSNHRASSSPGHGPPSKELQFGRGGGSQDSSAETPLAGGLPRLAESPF
# Sequence of Wild type human OXM (ligand) (peptide): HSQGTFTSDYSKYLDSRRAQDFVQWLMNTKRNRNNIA
"Emax (%), cAMP production in INS1 832-3 cells [1] [%]","Emax (%), cAMP production in primary human hepatocytes [2] [%]",Substance
107,–,Semaglutide (peptide)
–,90,Wild type human OXM (ligand)
